How the values were obtained:
[1] = target: the molecule itself; assay: photon counting histogram
[2] = target: the molecule itself; assay: single-molecule fluorescence brightness analysis

B1: MyD88 TIR domain (159-296 a.a) fused to GFP at the N-terminus (domain or fragment, human, UniProt Q99836 159-296, looked up)
chain: ERFDAFICYCPSDIQFVQEMIRQLEQTNYRLKLCVSDRDVLPGTCVWSIASELIEKRCRRMVVVVSDDYLQSKECDFQTKFALSLSPGAHQKRLIPIKYKAMKKEFPSILRFITVCDYTNPCTKSWFWTRLAKALSLP
[1]
  stoichiometry N: 3
[2]
  stoichiometry N: ~3 GFP fluorophores

B2: MyD88 death domain (1-117 a.a) fused to GFP at the N-terminus (domain or fragment, human, UniProt Q99836 1-117, looked up)
chain: MAAGGPGAGSAAPVSSTSSLPLAALNMRVRRRLSLFLNVRTQVAADWTALAEEMDFEYLEIRQLETQADPTGRLLDAWQGRPGASVGRLLELLTKLGRDDVLLELGPSIEEDCQKYI
[1]
  stoichiometry N: 8
[2]
  stoichiometry N: 8 to 10 GFP molecules

Reference: paper doi:10.1101/351726 (bioRxiv, 2018)
